Results as given in PMC13507078, “The BRCT domain enhances DNA binding and catalytic efficiency of fungal PARPs”.

Molecular target: T1, Af-PARP1 ΔBRCT (Aspergillus fumigatus, UniProt B0Y3N8 196-688)
T1 sequence: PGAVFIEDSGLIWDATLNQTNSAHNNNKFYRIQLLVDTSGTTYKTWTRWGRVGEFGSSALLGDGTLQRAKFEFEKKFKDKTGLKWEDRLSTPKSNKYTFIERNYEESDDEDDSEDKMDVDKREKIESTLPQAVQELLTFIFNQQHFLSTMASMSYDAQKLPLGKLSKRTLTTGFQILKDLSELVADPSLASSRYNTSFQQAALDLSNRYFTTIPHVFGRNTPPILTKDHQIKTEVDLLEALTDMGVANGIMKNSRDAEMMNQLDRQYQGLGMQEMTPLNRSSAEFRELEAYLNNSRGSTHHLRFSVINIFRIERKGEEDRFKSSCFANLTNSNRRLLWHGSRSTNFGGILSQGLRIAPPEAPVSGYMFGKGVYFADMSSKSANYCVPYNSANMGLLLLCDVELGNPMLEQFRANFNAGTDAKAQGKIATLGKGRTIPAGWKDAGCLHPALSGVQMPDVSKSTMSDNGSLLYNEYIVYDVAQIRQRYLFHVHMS
Test: EMSA; similar apparent strength to WT in titration; EMSA: 50 mM HEPES pH 8, 100 mM NaCl, 10% glycerol, 10 mM DTT, 45 min at 4 °C, 7% native PAGE 0.5x TBE; plasmid EMSA: 20 mM Tris-HCl pH 8, 30 mM NaCl, 1 mM EDTA, 1 mM DTT; CD: 20 mM HEPES pH 8, 100 mM NaCl, 0.5 mM TCEP, 2% glycerol
Details: protein: recombinant; tags: N-terminal His (HRV3C-cleavable; removed for SAXS/CD); dumbbell of two hairpins, nick

B1: DNA-1 (5'P nick) (structured_DNA)
DNA: CGGTCGATCGTAAGATCGACCGGCGCTGGAGCTTGCTCCAGCGC
modifications: 5'-phosphate
Q: Does B1 bind?
A: Result: binds
